Values quoted from earlier work in PMC3174036.
pKd: −log10 of the molar value.

Target: VEGFR-2 D7 D7 (Homo sapiens) (UniProt P35968)

pKd: 4.00
Substance: VEGFR-2 D7 D7 (from UniProt P35968)
